Data taken from the nanobody polyreactivity screen of Harvey et al. (2022).

Assay: yeast display, Sf9 membrane polyspecificity reagent, FACS + sequencing; frameworks hold sequencing errors
Outline: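 Polyreactivity labels are assigned by the sorting gate from which each nanobody was recovered. The gates were low and high (top ~1%), set on anti-HA fluorescence for expression and streptavidin fluorescence for reagent binding. Before sorting, galactose-induced (36–48 hours) yeast display cells were stained for 1 hour at 4 °C with 10% biotinylated, detergent-solubilized Sf9 membrane reagent.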

Row | Sequence | polyreactivity (PSR sort gate)
1 | QVQLVESGGGLVQAGGSLRLSCAASGFIFYLNAMGWYRQAPGKERELVAAISGRGGRTYYADSVKGRFTISRDNAKNTVYLQMNSLKPEDTAVYYCAAQYVPSRYGYWGQGTQVTVSS | high polyreactivity
2 | QVQLVESGGGLVQAGGSLRLSCAASGSTFYAYTKGWSRQAPGKERELVADISSGGGTYYADSVKGRFTISRDNAKNTVYLQMNSLKPEDTAVYYCNADWRVGRQLSKAKIPYDYWGQGTQVTVSS | low polyreactivity
3 | QVQLVESGGGLVQAGGSLRLSCAASGSIFRYNAMGWYRPAPGTERELVAAITSGDSTYYADSVKGRFTISRDNAKNTVYLHMNSLKPEDTAVYYCARRSYATYSFRFDYWGQGTQVTVSS | low polyreactivity
4 | QVQLVESGGGLVQAGCSLRLSCAASGSIFAYYDMGWYRQAPGKERELVAAITTRDDDTYYADSVKGRFTISRDNAKNTVYLLLNSLKPEDTAVYYCAAAWWDYGNGKYDYWGQGTQVTVSS | low polyreactivity
5 | QVQLVESGGGLVQAGGSLRLSCAASGRIFEYYAMGWYRQAPGKERELVAAINTGGNTYYADSVKGRFTISRDNAKNTVYLLMNSLKPEDTAVYYCATYPIWYGGYLSGTDYDYWGQGTQVTVSS | low polyreactivity
6 | QVQLVESGGGLVQAGGSLRLSCAASGFLFRYYTMGWYRQAPGKERDLVAVITRGGSTYYADSVKGRFTISRDNAKNTVYLQMNSLKPEDTAVYYCAAVRTKVWRGPEMDYWGQGTQVTVSS | high polyreactivity
7 | QVQLVESGGGLVQAGGSLRLSCAASGFNFSPYAMGWYRQAPGKERELVAAISSSGGSTYYADSVKGRFTISRDNAKNTVYLQMNSLKPEDTAVYYCNAAGGYRTSPSDYWGQGTQVTVSS | high polyreactivity
8 | QVQLVESGGGLVQAGGSLRLSCAASGSIFAPNAMGWYRQAPGKERELVARISRTGGSTNYADSVKGRFTISRDNAKNTVYLQMNSLKPEDTAVYYCNTQYSYSSAPPFWYTQMYYWGQGTQVTVSS | high polyreactivity
9 | QVHLVESGGGLVQAGGSLRLSCADSGSTFVAYAMGWYRQAPGKERDLVAAISKSGVRTYYADSVKGRFTISRDNAKNTVYLVMISLKPEDNAVYVCAADSGDLWGPFGYWGQGTQVTVSS | low polyreactivity
10 | QVQLVESGGGLVQAGGILRLSCAATGSTFVNNVMGWYRQGPRKESDLFAAISRRATSTRYADSVKGRFTISRDHAKNTVYLQMNSLKPEDTEVYYCAATLYVGVTGYGYWGQGTQVTVSS | high polyreactivity
11 | QVQLVESGGGLVQAGGSLRLSCAASGSTFVTYAMGCYRQAPGKERELVAVITYSGGNTYYADSVKGRVTISRDNAKNTVYLQMNSLKPEDTAVYDCAAAWLTSRGSRDSHRKYYYWGQGTQVTVSS | high polyreactivity
12 | QVQLVESGGGLVQAGGSLRLSCAASGSTFSRYAMGWYRQAPGKERELVAAISWSGASTYYADSVKGRFTISRDNAKNTVYLQMNRLKPEDTSVYYCAKVARQNWFRYYYDYWGQGTQVTVSS | high polyreactivity
13 | QVQLVESGGGLVQAGGSLRLAVLPPELTSTLNDMGWYRQAPGKERELVAAITRGGSTNYADSVKGRFTISRDNAKYTFYLQMNSMKPEDSAVYYCAAPYAGLRDGGDYWGQGTQVTVSS | low polyreactivity
14 | QVQLVESGGGLVQAGGSLRLSCAASGRTLPINAMGWYIEAPGKERELVAAISTSGTRTYYADSVKGRFTISRDNAKNTVYLQMNSLKPEDTAVYYCNKDYWKVRSYDYCGQGTQVTVSS | low polyreactivity
15 | QVQLVESGGGLVQAGGSLLLICAASGRTFPYNAMGWYRQAPGKEREFVAAISVGGGSTYADSVKGRFTISRDNAKNTVYLQMNSLKPEDTAVYYCAAAYTKLYYYWGQGTQVTVSS | low polyreactivity
16 | QVQLVESGGGLVQAGGSLRLSCAASGFIFQYYAMGWYREAPGKERELVAAISKTGGSTYYADSVKGRFTISRDNAKNTVYLQMNSLKPEDTAVYYCAVARSAYYRGNHWGQGSQVTVSS | high polyreactivity
17 | QDQLVESGGGLVQAGGSLRLSCAPSGSTFGDYDMGGYRPAPGKERELVAAISNGGSTYYAASVKGRFTISRDNAKNTVYLQRNSLKPEDTADFYCNADNVEIRSTYEYGRYLYGYWGQGTQVTVSS | low polyreactivity
